Assay results from publication PMC3885797 (2014).

Target: T1, 6xHis-CTNNBL1Δ76 (human, UniProt Q8WYA6 77-563)
T1 chain: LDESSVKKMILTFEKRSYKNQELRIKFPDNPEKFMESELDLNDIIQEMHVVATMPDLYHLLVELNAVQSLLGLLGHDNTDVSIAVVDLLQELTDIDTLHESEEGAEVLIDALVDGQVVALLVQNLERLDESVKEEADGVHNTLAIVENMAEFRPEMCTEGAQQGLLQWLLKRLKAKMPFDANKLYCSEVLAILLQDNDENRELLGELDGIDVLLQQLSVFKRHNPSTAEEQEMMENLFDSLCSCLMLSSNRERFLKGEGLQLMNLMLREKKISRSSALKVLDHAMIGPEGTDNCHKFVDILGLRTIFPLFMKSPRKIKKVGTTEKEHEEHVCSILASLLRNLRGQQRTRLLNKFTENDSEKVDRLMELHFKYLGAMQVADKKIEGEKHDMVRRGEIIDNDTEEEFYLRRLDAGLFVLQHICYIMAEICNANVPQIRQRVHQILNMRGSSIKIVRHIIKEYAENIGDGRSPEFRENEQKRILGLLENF
Assay: ITC; second site

B1: Prp31 NLS peptide (peptide)
chain: RKKRGGRRYRKMKE
modifications: Limits are the UniProt NLS motif (351-364); the exact peptide is shown only in Fig. 4B and may have different flanks
  Kd: ~12 µM

B2: CDC5L NLS3 peptide (peptide)
chain: KKRKRKR
modifications: Limits are the UniProt region required for CTNNBL1 interaction (200-206), taken as the NLS3 core; the assayed peptide is shown only in Fig. 4B and may have longer flanks
  Kd: ~4 µM
